Assay results published in patent US11795460B2, “Compositions and methods for TTR gene editing and treating ATTR amyloidosis” (Intellia Therapeutics, Inc., priority 2017, dated 2023).
Strand notation (5' to 3'): a small letter for the sugar, then the base; units joined by * are phosphorothioate-linked, units joined directly phosphodiester-linked; [ ] holds rarer units or linkages, { } end groups; capitals alone tell only the bases. m = 2'-O-methyl; r = 2'-OH (RNA)

Tests used:
TTR = TTR editing in primary human hepatocytes transfected with Spy Cas9 mRNA and sgRNAs (Table 13); format: cell-based; conditions: primary human hepatocytes co-transfected with Spy Cas9 mRNA (SEQ ID NO:2) and sgRNAs, 12.5 nM
Method: Primary liver hepatocytes. Primary human liver hepatocytes (PHH) and primary cynomolgus liver hepatocytes (PCH) (Gibco) were cultured per the manufacturer's protocol (Invitrogen, protocol 11.28.2012). In brief, the cells were thawed and resuspended in hepatocyte thawing medium with supplements (Gibco, Cat. CM7000) followed by centrifugation at 100 g for 10 minutes for human and 80 g for 4 minutes for cyno. The supernatant was discarded and the pelleted cells resuspended in hepatocyte plating medium plus supplement pack (Invitrogen, Cat. A1217601 and CM3000). Cells were counted and plated on Bio-coat collagen I coated 96-well plates (ThermoFisher, Cat. 877272) at a density of 33,000 cells/well for human or 60,000 cells/well for cyno (or 65,000 cells/well when assaying effects on TTR protein, described further below). Plated cells were allowed to settle and adhere for 6 or 24 hours in a tissue culture incubator at 37° C. and 5% CO2 atmosphere. After incubation cells were checked for monolayer formation and media was replaced with hepatocyte culture medium with serum-free supplement pack (Invitrogen, Cat. A1217601 and CM4000).
Lipofectamine RNAiMax (ThermoFisher, Cat. 13778150) based transfections were conducted as per the manufacturer's protocol. Cells were sequentially transfected with a lipoplex containing Spy Cas9 mRNA (100 ng), Lipofectamine RNAiMax (0.4 […]) and tracer RNA ([…]), Lipofectamine RNAiMax (0.4 μL/well) and OptiMem.
Transfected cells were harvested post-transfection at 24, 48, or 72 hours. The genomic DNA was extracted from each well of a 96-well plate using 50 μL/well BuccalAmp DNA Extraction solution (Epicentre, Cat. QE09050) per manufacturer's protocol. All DNA samples were subjected to PCR and subsequent NGS analyses, as described herein.
To quantitatively determine the efficiency of editing at the target location in the genome, sequencing was utilized to identify the presence of insertions and deletions introduced by gene editing.
Primers were designed around the target site within the gene of interest (e.g. TTR), and the genomic area of interest was amplified.
Additional PCR was performed per the manufacturer's protocols (Illumina) to add chemistry for sequencing. The amplicons were sequenced on an Illumina MiSeq instrument. The reads were aligned to a reference genome (e.g., the human reference genome (hg38), the cynomologus reference genome (mf5), the rat reference genome (rn6), or the mouse reference genome (mm10)) after eliminating those having low quality scores. The resulting files containing the reads were mapped to the reference genome (BAM files), where reads that overlapped the target region of interest were selected and the number of wild type reads versus the number of reads which contain an insertion, substitution, or deletion was calculated.
The editing percentage (e.g., the “editing efficiency” or “percent editing” or “indel frequency”) is defined as the total number of sequence reads with insertions/deletions (“indels”) or substitutions over the total number of sequence reads, including wild type.
Guides in modified sgRNA format targeting human and/or cyno TTR were delivered to primary human hepatocytes and primary cyno hepatocytes as described in Example 1. Percent editing was determined for crRNAs comprising each guide sequence across each cell type and the guide sequences were then rank ordered based on highest % edit. The screening data for the guide sequences in Table 2 in both cell lines are listed below (Table 12 through 15).

[1] = test system: off-target integration sites; assay: Off-target oligo insertion based assay in primary human hepatocytes (Table 30); format: cell-based; conditions: TTR sgRNAs in PHH, 100 ng Cas9 mRNA, 25 nM sgRNA, 12.5 nM donor oligo
Method: Off-target analysis of sgRNAs targeting TTR was performed in primary human hepatocytes (PHH) as described in Example 5, with the following modifications. PHH were plated at a density of 33,000 cells per well on collagen-coated 96-well plates as described in Example 1. Twenty-four hours post plating, cells were washed with media and transfected using Lipofectamine RNAiMAX (ThermoFisher, Cat. 13778150) as described in Example 1. Cells were transfected with a lipoplex containing 100 ng Cas9 mRNA, immediately followed by the addition of another lipoplex containing 25 nM of the sgRNA and 12.5 nM of the donor oligo (0.3 μL/well). Cells were lysed 48 hours post-transfection and gDNA was extracted and analyzed as further described in Example 5. The data is graphically represented in FIG. 20.
Fewer sites were detected in PHH for every guide tested as compared to the HekCas9 cell line, with no unique sites detected in PHH alone.

Row | Molecule | Avg % Deletion (TTR) | Avg % Edit (TTR) | Avg % Insert (TTR) | # Sites in PHH [1]
1 | G000568: TTR sgRNA modified sequence, Human, SEQ ID No. 110; guide sequence of CR003391 (nucleic acid) guide: mG*mG*mC*rUrGrUrCrGrUrCrArCrCrArArUrCrCrCrArGrUrUrUrUrArGrAmGmCmUmAmGmAmAmAmUmAmGmCrArArGrUrUrArArArArUrArArGrGrCrUrArGrUrCrCrGrUrUrArUrCrAmAmCmUmUmGmAmAmAmAmAmGmUmGmGmCmAmCmCmGmAmGmUmCmGmGmUmGmCmU*mU*mU*mU | 0.80% | 43.75% | 43.00% | 11
2 | G000571: TTR sgRNA modified sequence, Human, SEQ ID No. 112; guide sequence of CR005301 (nucleic acid) guide: mG*mU*mC*rArCrArGrArArArCrArCrUrCrArCrCrGrUrGrUrUrUrUrArGrAmGmCmUmAmGmAmAmAmUmAmGmCrArArGrUrUrArArArArUrArArGrGrCrUrArGrUrCrCrGrUrUrArUrCrAmAmCmUmUmGmAmAmAmAmAmGmUmGmGmCmAmCmCmGmAmGmUmCmGmGmUmGmCmU*mU*mU*mU | 6.13% | 20.47% | 14.47% | 1
3 | G000572: TTR sgRNA modified sequence, Human, SEQ ID No. 113; guide sequence of CR003385 (nucleic acid) guide: mC*mC*mC*rCrUrArCrUrCrCrUrArUrUrCrCrArCrCrArGrUrUrUrUrArGrAmGmCmUmAmGmAmAmAmUmAmGmCrArArGrUrUrArArArArUrArArGrGrCrUrArGrUrCrCrGrUrUrArUrCrAmAmCmUmUmGmAmAmAmAmAmGmUmGmGmCmAmCmCmGmAmGmUmCmGmGmUmGmCmU*mU*mU*mU | 13.85% | 55.42% | 41.62% | 2
4 | G000570: TTR sgRNA modified sequence, Human, SEQ ID No. 111; guide sequence of CR003347 (nucleic acid) guide: mC*mA*mU*rUrGrArUrGrGrCrArGrGrArCrUrGrCrCrUrGrUrUrUrUrArGrAmGmCmUmAmGmAmAmAmUmAmGmCrArArGrUrUrArArArArUrArArGrGrCrUrArGrUrCrCrGrUrUrArUrCrAmAmCmUmUmGmAmAmAmAmAmGmUmGmGmCmAmCmCmGmAmGmUmCmGmGmUmGmCmU*mU*mU*mU | 0.35% | 68.42% | 68.08% | 1
